Here are results for 36 variants from the RNAGym collection of RNA variant scans (doi:10.1021/acssynbio.7b00057).

The chains are these.
B1: Pistol ribozyme (parent)
chain: GGGUCGUUGUUCCAUAAUCGCGUGGAUAUGGCACGCAAGUUUCUACCGGGCACCGUAAAUGUCCGACUGGAGCCGUUCGGGCGGCUAUAAACAGACCUCAGGCCCGAAGCGUGGCGGCACCUGCCGCCGGUGGUAAAAAAGAUCGGAAGAGCACACGUCU

The data set covers variants of B1. The experiment in a line: aptazyme ON/OFF ratio, guanine; higher = stronger switching; co-transcriptional cleavage with and without guanine.
For GGGUCGGGAGUUAAUAAUCGCGUGGAUAUGGCACGCAAGUUUCUACCGGGCACCGUAAAUGUCCGACUGGAGCCGUUCGGGCGGCUAUAAACAGACCUCAGGCCCGAAGCGUGGCGGCACCUGCCGCCGGUGGUAAAAAAGAUCGGAAGAGCACACGUCU, the “aptazyme ON/OFF ratio” value was determined as 1.25.

Take GGGUCGCCAUUGAAUAAUCGCGUGGAUAUGGCACGCAAGUUUCUACCGGGCACCGUAAAUGUCCGACUGGAGCCGUUCGGGCGGCUAUAAACAGACCUCAGGCCCGAAGCGUGGCGGCACCUGCCGCCGGUGGUAAAAAAGAUCGGAAGAGCACACGUCU: the “aptazyme ON/OFF ratio” value is 1.25.

As for GGGUCGGCGACGAAUAAUCGCGUGGAUAUGGCACGCAAGUUUCUACCGGGCACCGUAAAUGUCCGACUGGAGCCGUUCGGGCGGCUAUAAACAGACCUCAGGCCCGAAGCGUGGCGGCACCUGCCGCCGGUGGUAAAAAAGAUCGGAAGAGCACACGUCU, the “aptazyme ON/OFF ratio” value was 1.11.

On to GGGUCGAGACGAAAUAAUCGCGUGGAUAUGGCACGCAAGUUUCUACCGGGCACCGUAAAUGUCCGACUGGAGCCGUUCGGGCGGCUAUAAACAGACCUCAGGCCCGAAGCGUGGCGGCACCUGCCGCCGGUGGUAAAAAAGAUCGGAAGAGCACACGUCU, for which the “aptazyme ON/OFF ratio” value amounted to 1.18.

Consider GGGUCGGGACGGAAUAAUCGCGUGGAUAUGGCACGCAAGUUUCUACCGGGCACCGUAAAUGUCCGACUGGAGCCGUUCGGGCGGCUAUAAACAGACCUCAGGCCCGAAGCGUGGCGGCACCUGCCGCCGGUGGUAAAAAAGAUCGGAAGAGCACACGUCU, for which the “aptazyme ON/OFF ratio” value worked out at 1.1.

As to GGGUCGCCUACAUAUAAUCGCGUGGAUAUGGCACGCAAGUUUCUACCGGGCACCGUAAAUGUCCGACUGGAGCCGUUCGGGCGGCUAUAAACAGACCUCAGGCCCGAAGCGUGGCGGCACCUGCCGCCGGUGGUAAAAAAGAUCGGAAGAGCACACGUCU, the “aptazyme ON/OFF ratio” value was found to be 1.18.

For the variant GGGUCGAUGUGCCAUAAUCGCGUGGAUAUGGCACGCAAGUUUCUACCGGGCACCGUAAAUGUCCGACUGGAGCCGUUCGGGCGGCUAUAAACAGACCUCAGGCCCGAAGCGUGGCGGCACCUGCCGCCGGUGGUAAAAAAGAUCGGAAGAGCACACGUCU, the “aptazyme ON/OFF ratio” value turned out to be 1.17.

Take GGGUCGUUAAGUUAUAAUCGCGUGGAUAUGGCACGCAAGUUUCUACCGGGCACCGUAAAUGUCCGACUGGAGCCGUUCGGGCGGCUAUAAACAGACCUCAGGCCCGAAGCGUGGCGGCACCUGCCGCCGGUGGUAAAAAAGAUCGGAAGAGCACACGUCU: the “aptazyme ON/OFF ratio” value came to 1.22.

On to GGGUCGAGGUCCCAUAAUCGCGUGGAUAUGGCACGCAAGUUUCUACCGGGCACCGUAAAUGUCCGACUGGAGCCGUUCGGGCGGCUAUAAACAGACCUCAGGCCCGAAGCGUGGCGGCACCUGCCGCCGGUGGUAAAAAAGAUCGGAAGAGCACACGUCU, for which the “aptazyme ON/OFF ratio” value came to 1.32.

As to GGGUCGCAUUAACAUAAUCGCGUGGAUAUGGCACGCAAGUUUCUACCGGGCACCGUAAAUGUCCGACUGGAGCCGUUCGGGCGGCUAUAAACAGACCUCAGGCCCGAAGCGUGGCGGCACCUGCCGCCGGUGGUAAAAAAGAUCGGAAGAGCACACGUCU, the “aptazyme ON/OFF ratio” value was determined as 1.19.

For GGGUCGCGCCGUGAUAAUCGCGUGGAUAUGGCACGCAAGUUUCUACCGGGCACCGUAAAUGUCCGACUGGAGCCGUUCGGGCGGCUAUAAACAGACCUCAGGCCCGAAGCGUGGCGGCACCUGCCGCCGGUGGUAAAAAAGAUCGGAAGAGCACACGUCU, the “aptazyme ON/OFF ratio” value is 1.09.

Consider GGGUCGUACUACAAUAAUCGCGUGGAUAUGGCACGCAAGUUUCUACCGGGCACCGUAAAUGUCCGACUGGAGCCGUUCGGGCGGCUAUAAACAGACCUCAGGCCCGAAGCGUGGCGGCACCUGCCGCCGGUGGUAAAAAAGAUCGGAAGAGCACACGUCU, for which the “aptazyme ON/OFF ratio” value stood at 1.16.

For the variant GGGUCGCUAGCUCAUAAUCGCGUGGAUAUGGCACGCAAGUUUCUACCGGGCACCGUAAAUGUCCGACUGGAGCCGUUCGGGCGGCUAUAAACAGACCUCAGGCCCGAAGCGUGGCGGCACCUGCCGCCGGUGGUAAAAAAGAUCGGAAGAGCACACGUCU, the “aptazyme ON/OFF ratio” value was 1.18.

Turning to GGGUCGAUUGAAAAUAAUCGCGUGGAUAUGGCACGCAAGUUUCUACCGGGCACCGUAAAUGUCCGACUGGAGCCGUUCGGGCGGCUAUAAACAGACCUCAGGCCCGAAGCGUGGCGGCACCUGCCGCCGGUGGUAAAAAAGAUCGGAAGAGCACACGUCU, the “aptazyme ON/OFF ratio” value was 1.14.

Take GGGUCGUUGAGCUAUAAUCGCGUGGAUAUGGCACGCAAGUUUCUACCGGGCACCGUAAAUGUCCGACUGGAGCCGUUCGGGCGGCUAUAAACAGACCUCAGGCCCGAAGCGUGGCGGCACCUGCCGCCGGUGGUAAAAAAGAUCGGAAGAGCACACGUCU: the “aptazyme ON/OFF ratio” value worked out at 1.37.

As for GGGUCGCAGCUUUAUAAUCGCGUGGAUAUGGCACGCAAGUUUCUACCGGGCACCGUAAAUGUCCGACUGGAGCCGUUCGGGCGGCUAUAAACAGACCUCAGGCCCGAAGCGUGGCGGCACCUGCCGCCGGUGGUAAAAAAGAUCGGAAGAGCACACGUCU, the “aptazyme ON/OFF ratio” value is 1.54.

With GGGUCGUCUGACAAUAAUCGCGUGGAUAUGGCACGCAAGUUUCUACCGGGCACCGUAAAUGUCCGACUGGAGCCGUUCGGGCGGCUAUAAACAGACCUCAGGCCCGAAGCGUGGCGGCACCUGCCGCCGGUGGUAAAAAAGAUCGGAAGAGCACACGUCU, the “aptazyme ON/OFF ratio” value amounted to 1.1.

Regarding GGGUCGGUUCGAGAUAAUCGCGUGGAUAUGGCACGCAAGUUUCUACCGGGCACCGUAAAUGUCCGACUGGAGCCGUUCGGGCGGCUAUAAACAGACCUCAGGCCCGAAGCGUGGCGGCACCUGCCGCCGGUGGUAAAAAAGAUCGGAAGAGCACACGUCU, the “aptazyme ON/OFF ratio” value is 1.13.

As for GGGUCGUAACGUAAUAAUCGCGUGGAUAUGGCACGCAAGUUUCUACCGGGCACCGUAAAUGUCCGACUGGAGCCGUUCGGGCGGCUAUAAACAGACCUCAGGCCCGAAGCGUGGCGGCACCUGCCGCCGGUGGUAAAAAAGAUCGGAAGAGCACACGUCU, the “aptazyme ON/OFF ratio” value turned out to be 1.17.

Consider GGGUCGCGGAAAUAUAAUCGCGUGGAUAUGGCACGCAAGUUUCUACCGGGCACCGUAAAUGUCCGACUGGAGCCGUUCGGGCGGCUAUAAACAGACCUCAGGCCCGAAGCGUGGCGGCACCUGCCGCCGGUGGUAAAAAAGAUCGGAAGAGCACACGUCU, for which the “aptazyme ON/OFF ratio” value was 1.18.

Turning to GGGUCGCGAGACUAUAAUCGCGUGGAUAUGGCACGCAAGUUUCUACCGGGCACCGUAAAUGUCCGACUGGAGCCGUUCGGGCGGCUAUAAACAGACCUCAGGCCCGAAGCGUGGCGGCACCUGCCGCCGGUGGUAAAAAAGAUCGGAAGAGCACACGUCU, the “aptazyme ON/OFF ratio” value is 1.04.

GGGUCGCCCGCCAAUAAUCGCGUGGAUAUGGCACGCAAGUUUCUACCGGGCACCGUAAAUGUCCGACUGGAGCCGUUCGGGCGGCUAUAAACAGACCUCAGGCCCGAAGCGUGGCGGCACCUGCCGCCGGUGGUAAAAAAGAUCGGAAGAGCACACGUCU: the “aptazyme ON/OFF ratio” value was found to be 1.22.

In the case of GGGUCGGACAAGAAUAAUCGCGUGGAUAUGGCACGCAAGUUUCUACCGGGCACCGUAAAUGUCCGACUGGAGCCGUUCGGGCGGCUAUAAACAGACCUCAGGCCCGAAGCGUGGCGGCACCUGCCGCCGGUGGUAAAAAAGAUCGGAAGAGCACACGUCU, the “aptazyme ON/OFF ratio” value was 1.04.

Consider GGGUCGACCCUGCAUAAUCGCGUGGAUAUGGCACGCAAGUUUCUACCGGGCACCGUAAAUGUCCGACUGGAGCCGUUCGGGCGGCUAUAAACAGACCUCAGGCCCGAAGCGUGGCGGCACCUGCCGCCGGUGGUAAAAAAGAUCGGAAGAGCACACGUCU, for which the “aptazyme ON/OFF ratio” value stood at 1.03.

In the case of GGGUCGGCACUGCAUAAUCGCGUGGAUAUGGCACGCAAGUUUCUACCGGGCACCGUAAAUGUCCGACUGGAGCCGUUCGGGCGGCUAUAAACAGACCUCAGGCCCGAAGCGUGGCGGCACCUGCCGCCGGUGGUAAAAAAGAUCGGAAGAGCACACGUCU, the “aptazyme ON/OFF ratio” value amounted to 1.29.

As to GGGUCGGUCCCUUAUAAUCGCGUGGAUAUGGCACGCAAGUUUCUACCGGGCACCGUAAAUGUCCGACUGGAGCCGUUCGGGCGGCUAUAAACAGACCUCAGGCCCGAAGCGUGGCGGCACCUGCCGCCGGUGGUAAAAAAGAUCGGAAGAGCACACGUCU, the “aptazyme ON/OFF ratio” value was 1.11.

Take GGGUCGCCUAUGAAUAAUCGCGUGGAUAUGGCACGCAAGUUUCUACCGGGCACCGUAAAUGUCCGACUGGAGCCGUUCGGGCGGCUAUAAACAGACCUCAGGCCCGAAGCGUGGCGGCACCUGCCGCCGGUGGUAAAAAAGAUCGGAAGAGCACACGUCU: the “aptazyme ON/OFF ratio” value came out at 1.16.

For the variant GGGUCGAGUUCCUAUAAUCGCGUGGAUAUGGCACGCAAGUUUCUACCGGGCACCGUAAAUGUCCGACUGGAGCCGUUCGGGCGGCUAUAAACAGACCUCAGGCCCGAAGCGUGGCGGCACCUGCCGCCGGUGGUAAAAAAGAUCGGAAGAGCACACGUCU, the “aptazyme ON/OFF ratio” value turned out to be 1.38.

Take GGGUCGCUCAAUCAUAAUCGCGUGGAUAUGGCACGCAAGUUUCUACCGGGCACCGUAAAUGUCCGACUGGAGCCGUUCGGGCGGCUAUAAACAGACCUCAGGCCCGAAGCGUGGCGGCACCUGCCGCCGGUGGUAAAAAAGAUCGGAAGAGCACACGUCU: the “aptazyme ON/OFF ratio” value is 1.05.

As to GGGUCGAUGACAUAUAAUCGCGUGGAUAUGGCACGCAAGUUUCUACCGGGCACCGUAAAUGUCCGACUGGAGCCGUUCGGGCGGCUAUAAACAGACCUCAGGCCCGAAGCGUGGCGGCACCUGCCGCCGGUGGUAAAAAAGAUCGGAAGAGCACACGUCU, the “aptazyme ON/OFF ratio” value worked out at 1.11.

GGGUCGGGAAUACAUAAUCGCGUGGAUAUGGCACGCAAGUUUCUACCGGGCACCGUAAAUGUCCGACUGGAGCCGUUCGGGCGGCUAUAAACAGACCUCAGGCCCGAAGCGUGGCGGCACCUGCCGCCGGUGGUAAAAAAGAUCGGAAGAGCACACGUCU: the “aptazyme ON/OFF ratio” value amounted to 1.46.

Take GGGUCGUUGAAGAAUAAUCGCGUGGAUAUGGCACGCAAGUUUCUACCGGGCACCGUAAAUGUCCGACUGGAGCCGUUCGGGCGGCUAUAAACAGACCUCAGGCCCGAAGCGUGGCGGCACCUGCCGCCGGUGGUAAAAAAGAUCGGAAGAGCACACGUCU: the “aptazyme ON/OFF ratio” value is 1.42.

As for GGGUCGAAUGCUUAUAAUCGCGUGGAUAUGGCACGCAAGUUUCUACCGGGCACCGUAAAUGUCCGACUGGAGCCGUUCGGGCGGCUAUAAACAGACCUCAGGCCCGAAGCGUGGCGGCACCUGCCGCCGGUGGUAAAAAAGAUCGGAAGAGCACACGUCU, the “aptazyme ON/OFF ratio” value stood at 1.28.

Turning to GGGUCGCAGCAAAAUAAUCGCGUGGAUAUGGCACGCAAGUUUCUACCGGGCACCGUAAAUGUCCGACUGGAGCCGUUCGGGCGGCUAUAAACAGACCUCAGGCCCGAAGCGUGGCGGCACCUGCCGCCGGUGGUAAAAAAGAUCGGAAGAGCACACGUCU, the “aptazyme ON/OFF ratio” value amounted to 1.2.

Consider GGGUCGGGCGUUGAUAAUCGCGUGGAUAUGGCACGCAAGUUUCUACCGGGCACCGUAAAUGUCCGACUGGAGCCGUUCGGGCGGCUAUAAACAGACCUCAGGCCCGAAGCGUGGCGGCACCUGCCGCCGGUGGUAAAAAAGAUCGGAAGAGCACACGUCU, for which the “aptazyme ON/OFF ratio” value turned out to be 1.05.

Consider GGGUCGUUCAGAUAUAAUCGCGUGGAUAUGGCACGCAAGUUUCUACCGGGCACCGUAAAUGUCCGACUGGAGCCGUUCGGGCGGCUAUAAACAGACCUCAGGCCCGAAGCGUGGCGGCACCUGCCGCCGGUGGUAAAAAAGAUCGGAAGAGCACACGUCU, for which the “aptazyme ON/OFF ratio” value turned out to be 1.17.
